Bridge positions count the residues as written; N and C are the ends. Square brackets hold non-standard residues; d marks the D form. Ends that are not written are not given here. Hyp = O=C(O)[C@@H]1C[C@@H](O)CN1
T1: hAMY3R (human, UniProt P30988)
T1 sequence 1: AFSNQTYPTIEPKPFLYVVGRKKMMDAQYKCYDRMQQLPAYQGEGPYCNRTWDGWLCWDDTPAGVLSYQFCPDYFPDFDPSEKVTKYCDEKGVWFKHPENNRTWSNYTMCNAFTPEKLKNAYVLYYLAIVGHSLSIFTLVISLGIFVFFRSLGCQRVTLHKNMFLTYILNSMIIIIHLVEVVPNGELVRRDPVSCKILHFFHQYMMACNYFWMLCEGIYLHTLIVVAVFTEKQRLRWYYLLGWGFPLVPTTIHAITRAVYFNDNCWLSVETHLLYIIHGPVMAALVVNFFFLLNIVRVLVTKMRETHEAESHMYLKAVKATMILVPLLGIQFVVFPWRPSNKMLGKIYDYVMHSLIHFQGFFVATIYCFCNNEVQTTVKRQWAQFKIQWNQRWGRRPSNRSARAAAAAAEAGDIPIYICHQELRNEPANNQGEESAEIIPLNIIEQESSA
T1 sequence 2: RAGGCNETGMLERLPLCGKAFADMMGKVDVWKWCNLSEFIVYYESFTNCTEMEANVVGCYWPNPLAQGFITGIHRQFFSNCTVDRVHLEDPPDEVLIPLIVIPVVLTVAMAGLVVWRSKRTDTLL


Tests used:
[1] = target: hAM1R (human, UniProt Q16602); test: cell-based or functional assay
[2] = target: T1, hAMY3R; test: cell-based or functional assay

hAM1R EC50 (cAMP) [1] [nM] | hAMY3R EC50 (cAMP) [2] [nM] | Binder
2980 | 0.074 | GCRFGTCTVQRLAHQIYQFTDKDKDNVAPRSKVSPNG[Hyp]-NH2 (disulfide 2-7 (inferred); ends not checked) [SEQ ID NO: 175]
> 5000 | 0.082 | KCNTATCATQRLANFLVHSSNNFGAILPSTKIGSNTY [SEQ ID NO: 180]
2980 | 0.082 | GCRTGTCTVQRLAHQIYQFTDKDKDNVAPRSKIGPQG[Hyp]-NH2 (disulfide 2-7 (inferred); ends not checked) [SEQ ID NO: 179]
2980 | 0.064 | GCRTGTCTVQRLAHQIYQFTDKDKDNVAPRTNISPNG[Hyp]-NH2 (disulfide 2-7 (inferred); ends not checked) [SEQ ID NO: 170]
2980 | 0.063 | GCRFGTCTVQRLAHQIYQFTDKDKDNVAPRSKISPQG[Hyp]-NH2 (disulfide 2-7 (inferred); ends not checked) [SEQ ID NO: 169]
> 5000 | 0.069 | GCRMGTCTVQRLAHQIYQFTDKFKDNVAPRSKISPQT[Hyp]-NH2 (disulfide 2-7 (inferred); ends not checked) [SEQ ID NO: 173]
> 5000 | 0.062 | GCRFGTCTVQRLAHQIYQFTDKDKDNVAPRSKISPQT[Hyp]-NH2 (disulfide 2-7 (inferred); ends not checked) [SEQ ID NO: 168]
2980 | 0.066 | GCRTGTCTVQRLAHQIYQFTDKDKDNVAPRSNVSPNGY [SEQ ID NO: 172]
133 | 0.071 | GCRFGTCTVQRLAHQIYQFTDKDKDNVAPRSKVSPQGY [SEQ ID NO: 174]
2980 | 0.077 | GCRTGTCTVQRLAHQIYQFTDKDKDNVAPRSNVGPNGY [SEQ ID NO: 177]
2980 | 0.076 | GCRTGTCTVQRLAHQIYQFTDKDKDNVAPRTNVSPQGY [SEQ ID NO: 176]
2980 | 0.08 | GCRTGTCTVQRLAHQIYQFTDKDKDNVAPRTNVSPQG[Hyp]-NH2 (disulfide 2-7 (inferred); ends not checked) [SEQ ID NO: 178]
2980 | 0.056 | GCRTGTCTVQRLAHQIYQFTDKDKDNVAPRSNVSPNG[Hyp]-NH2 (disulfide 2-7 (inferred); ends not checked) [SEQ ID NO: 166]
> 5000 | 0.064 | GCRWGTCTVQRLAHQIYQFTDKFKDNVAPRSKISPQT[Hyp]-NH2 (disulfide 2-7 (inferred); ends not checked) [SEQ ID NO: 171]
817 | 0.008 | KCNFATCTVQRLAHQIYQFTDKDKDNVAPPTEVGSNGP [SEQ ID NO: 18]
2980 | 0.056 | GCRFGTCTVQRLAHQIYQFTDKDKDNVAPRSKVSPQG[Hyp]-NH2 (disulfide 2-7 (inferred); ends not checked) [SEQ ID NO: 167]

— patent US12139520B2 (priority 2020, dated 2024)
